The target of assay [1] is RBDSARS-CoV (SARS-CoV S protein residues 318-510, C-terminal His-tag) (SARS-CoV, UniProt P59594 318-510). In words: ELISA. In general terms: ELISA stands for enzyme-linked immunosorbent assay.
The target in assay [2] is RBDSARS-CoV-2 (SARS-CoV-2 S protein residues 319-539, C-terminal His-tag) (SARS-CoV-2, UniProt P0DTC2 319-539). In words: ELISA.

Positions count from the first letter of the chain named. Bounds are passed on as bounds.

B1: 5p-78 (VHH)
VHH: HVQLVESGGGLVQAGGSLRLSCAAAARFSTSAMGWFRQAPGKEREFVAAVSWSNTNIHYADTVKGRFTISADTAKETVYLQMNSLKPDDTAVYYCAQGGWGLTQPIIVDYWGKGTQVTVSS
B1: the IC50 in assay [1] and in assay [2] was less than 10 nM each time.

B2: 5p-165 (VHH)
VHH: HVQLVESGGGLVQAGESLRLSCVASGSISSINAMGWFRQAPGKQRELVASISNIHTTLYAESVKGRFTISRDTAKNTADLQMDSLKPEDTAIYYCNLRQDCSYNGCDEYWGQGTQVTVSS
In the case of B2, the figures for the half-inhibitory concentration (IC50) in assay [1] and in assay [2] were 10 to 100 nM and less than 10 nM, respectively.

B3: 5p-167 (VHH)
VHH: B2 VHH with H1Q, E16G, S21L, S29D, I54M, L58M, T73N, D83N, Y94F, D100R
Regarding B3, the IC50 is more than 8000 nM in assay [1] and less than 10 nM in assay [2].

B4: 5p-61 (VHH)
VHH: QVQLVESGGGLVQAGGSLRLACAGSGGTFSSYIMAWFHQAPGKEREFIAGISKTGSDTYYADSVKGRFTISRDNAKNTVYLQMNSLKPEDTAVYYCAARRGPLITTSRLHYDFWGQGTQVTVSS
As for B4, the IC50 was 10 to 100 nM in assay [1] and less than 10 nM in assay [2].

B5: 5p-3 (VHH)
VHH: QVQLVESGGGLVQAGDSLRLSCAASGRTISTFPMGWFRQAPGKEREFVATITRTGFGTYYSDSVKGRFTISRDNAKNTVFLQMNSLKPEDTALYYCAAAKTTDWVTRAPREMHEYAYWGQGTQVTVSS
As for B5, the IC50 is 10 to 100 nM in assay [1] and less than 10 nM in assay [2].

B6: 5p-82 (VHH)
VHH: HVQLVESGGGLVQAGESLRLSCVDSKRTGSRWPMGWFRQAPGKEREFVASISWTGSRTYYADSVKGRFTISRDNAENTVFLQMNSLKPEDTAVYYCAAAHARVYGANWSSSNRNDYDAWGQGTQVTVSS
For the molecule B6, the IC50 in assay [1] and in assay [2] was 10 to 100 nM in each case.

B7: 5p-89 (VHH)
VHH: B6 VHH with H1E, E16G, V23E, M34V, Q82K, H100Q, A101T, N114D
In the case of B7, the IC50 in assay [1] and in assay [2] was 10 to 100 nM throughout.

B8: 5p-74 (VHH)
VHH: DVQLVESGGGLVQAGGSLRLSCAASGGTSRRYTMGWFRQAPGKEREFVSAISNTGATISGANSMEGRFTISRDNAKNTVYLQMNSLKPEDTAVYYCAATSRGWSIGMTYDYWGQGTQVTVSS
Take B8: the IC50 in assay [1] and in assay [2] was less than 10 nM each time.

B9: 5p-64 (VHH)
VHH: QVQLVESGGGLVQAGGSLRLSCAASGRTFSTYAMAWFRQAPGKEREFVAGVARSADTTYYGDSVKGRFTISRDNAKNEVNLQMSSLKPEDTAVYYCAARSVIQYGIVPGNDFHYEYWGQGTQVTVSS
notes: class V psNb
In the case of B9, the half-maximal inhibitory concentration (IC50) in assay [1] and in assay [2] was less than 10 nM each time.

B10: 5p-175 (VHH)
VHH: B9 VHH with G105S
Consider B10, for which the IC50 in assay [1] and in assay [2] was less than 10 nM in each case.

B11: 5p-63 (VHH)
VHH: DVQLVESGGGLVQAGGSLRLSCAASGRSFSTYAMGWFRQAPGKEREFVAGVARSASTTYYTDSVKGRFTISRDNAKNEVYLQMNSLKPEDTAVYYCAARSVIQDTVVPGNPFHYEYWGQGTQVTVSS
Regarding B11, the IC50 in assay [1] and in assay [2] was less than 10 nM each time.

B12: 5p-68 (VHH)
VHH: QVQLVESGGGLVQAGGSLRLSCVASGRTFSTSHMGWFRQAPGKEREFVAVISRSGSSTLDADSVKGRFTISRDNAKNTVYLQMNSLKPEDTAVYYCAGSRTAGLTSNRFLYDSWGQGTQVTVSS
In the case of B12, the IC50 in assay [1] is 10 to 100 nM; in assay [2], less than 10 nM.

In general, IC50 refers to the concentration that inhibits the measured activity by half. A low value points to higher potency.
